Laboratory results as given in patent US20150344570A1 (published 2015).
Like-named read-outs stand apart in the source and are kept apart here.

Experiments:
Test in all cases: SPR (Biacore), antibody captured on chip, soluble FcγR as analyte, 1:1 Langmuir fit
[1] = target: T1, FcγRIa extracellular domain with C-terminal His tag (human, UniProt P12314 16-292)
T1 construct: extracellular domain; Soluble receptor expressed in FreeStyle293 cells; used as analyte in Biacore; also called FcgRIa; FcgRI; not shown: His tag at the C terminus
T1 sequence (P12314 16-292): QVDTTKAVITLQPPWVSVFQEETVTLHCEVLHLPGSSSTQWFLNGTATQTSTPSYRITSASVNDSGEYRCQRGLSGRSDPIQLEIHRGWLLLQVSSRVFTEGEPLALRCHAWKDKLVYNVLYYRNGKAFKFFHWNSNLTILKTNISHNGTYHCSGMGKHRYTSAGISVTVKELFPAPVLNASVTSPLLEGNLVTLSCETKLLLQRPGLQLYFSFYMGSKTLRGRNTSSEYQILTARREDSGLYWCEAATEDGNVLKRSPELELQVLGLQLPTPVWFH
Method: (§1) Analysis of interaction between objective antibody and the FcγR was carried out using Biacore T100 (GE Healthcare), Biacore T200, Biacore A100, and Biacore 4000. HBS-EP+ (GE Healthcare) was used as the running buffer, and the measurement temperature was set to 25° C. Chips produced by immobilizing the antigen peptide by the amine coupling method to a Series S sensor Chip CM5 (GE Healthcare), chips produced by allowing preliminarily biotinylated antigen peptides to interact with and immobilize onto a Series S Sensor Chip SA (certified) (GE Healthcare), chips produced by immobilizing Protein L (ACTIGEN, BioVision) to Series S Sencor Chip CM5 (GE Healthcare), or chips produced by immobilizing Protein A/G (Thermo Scientific) to Series S Sencor Chip CM5 (GE Healthcare) were used. Antibodies of interest were captured onto these chips, and allowed to interact to each FcγR diluted with running buffer. To regenerate and repeatedly use the chip, the antibodies captured onto the chip were washed off by reacting 10 mM glycine-HCl, pH 1.5.

[2] = target: T2, FcγRIIa R extracellular domain with C-terminal His tag (human, UniProt P12318 34-217)
T2 construct: extracellular domain; Soluble receptor, R131 allotype; also called FcgRIIa R; FcgRIIaR; not shown: His tag at the C terminus
T2 sequence (looked up): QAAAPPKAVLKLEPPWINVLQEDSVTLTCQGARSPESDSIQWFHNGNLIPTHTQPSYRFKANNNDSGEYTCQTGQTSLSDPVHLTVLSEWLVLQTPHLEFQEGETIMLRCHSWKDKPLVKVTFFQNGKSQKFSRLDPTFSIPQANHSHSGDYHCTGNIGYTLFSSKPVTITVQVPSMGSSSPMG
Method: as §1

[3] = target: T3, FcγRIIa H extracellular domain with C-terminal His tag (human, UniProt P12318 34-217)
T3 construct: extracellular domain; Soluble receptor, H131 allotype; also called FcgRIIa H; FcgRIIaH; not shown: His tag at the C terminus
T3 sequence (looked up): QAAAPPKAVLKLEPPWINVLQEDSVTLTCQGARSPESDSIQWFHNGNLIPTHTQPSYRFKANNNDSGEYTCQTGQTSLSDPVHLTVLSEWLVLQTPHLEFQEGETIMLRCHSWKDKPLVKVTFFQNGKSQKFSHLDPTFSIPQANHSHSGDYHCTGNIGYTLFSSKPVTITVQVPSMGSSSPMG
Method: as §1

[4] = target: T4, FcγRIIb extracellular domain with C-terminal His tag (human, UniProt P31994 43-217)
T4 construct: extracellular domain; also called FcgRIIb; CD32B; not shown: His tag at the C terminus
T4 sequence (looked up): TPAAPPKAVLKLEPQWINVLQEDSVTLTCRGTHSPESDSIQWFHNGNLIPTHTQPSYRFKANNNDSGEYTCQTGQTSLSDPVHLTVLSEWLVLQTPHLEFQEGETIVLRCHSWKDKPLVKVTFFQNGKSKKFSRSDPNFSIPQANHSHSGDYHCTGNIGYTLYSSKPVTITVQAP
Method: as §1

[5] = target: T5, FcγRIIIa F extracellular domain with C-terminal His tag (human, UniProt P08637 17-208)
T5 construct: extracellular domain; Soluble receptor, F158 allotype; also called FcgRIIIa F; FcgRIIIaF; not shown: His tag at the C terminus
T5 sequence (P08637 17-208): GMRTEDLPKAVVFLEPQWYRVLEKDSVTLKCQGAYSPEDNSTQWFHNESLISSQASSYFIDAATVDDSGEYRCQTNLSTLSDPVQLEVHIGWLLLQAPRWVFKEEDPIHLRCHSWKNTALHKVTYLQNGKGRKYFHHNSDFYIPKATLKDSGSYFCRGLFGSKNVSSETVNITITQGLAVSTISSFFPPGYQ
Method: as §1

[6] = target: T6, FcγRIIIa V extracellular domain with C-terminal His tag (human, UniProt P08637 17-208)
T6 construct: extracellular domain; Soluble receptor, V158 allotype; also called FcgRIIIa V; FcgRIIIaV; not shown: His tag at the C terminus
T6 sequence (P08637 17-208 F176V): as the sequence (P08637 17-208) above, with F160V counted along it
Method: as §1

[7] = target: T5, FcγRIIIa F extracellular domain with …; remark: listed apart in the source
Method: (§2) Specifically, H240-Hl134 (SEQ ID NO: 88) resulting from introduction of L234Y/L235Y/G236W/H268D/S298A into H240-Hl033 and H240-Kn132 (SEQ ID NO: 89) resulting from introduction of K326D/A330M/K334E into H240-Kn033 were constructed according to the method described in Reference Example 1.
as §1

[8] = target: T6, FcγRIIIa V extracellular domain with …; remark: listed apart in the source
Method: as §2, §1

B1: H240-Kn061/H240-Hl071/L73-k0 (antibody, human IgG1, kappa)
heavy 1: QDQLVQSGAEVKKPGASVKVSCKASGFNIKDTYIQWVRQAPGQGLEWMGRIDPLRKQTKYREKFEGRVTITADTSTNTAYMELSSLRSEDTAVYYCVRSGREFDYWGQGTLVTVSSASTKGPSVFPLAPSSKSTSGGTAALGCLVKDYFPEPVTVSWNSGALTSGVHTFPAVLQSSGLYSLSSVVTVPSSSLGTQTYICNVNHKPSNTKVDKKVEPKSCDKTHTCPPCPAPEYYWGPSVFLFPPKPKDTLMISRTPEVTCVVVDVSDEDPEVKFNWYVDGVEVHNAKTKPREEQYNATYRVVSVLTVLHQDWLNGKEYKCKVSNKALPAPIEKTISKAKGQPREPQVCTLPPSRDELTKNQVSLWCLVKGFYPSDIAVEWESNGQPENNYKTTPPVLDSDGSFFLYSKLTVDKSRWQQGNVFSCSVMHEALHNHYTQKSLSLSP
heavy 2: QDQLVQSGAEVKKPGASVKVSCKASGFNIKDTYIQWVRQAPGQGLEWMGRIDPLRKQTKYREKFEGRVTITADTSTNTAYMELSSLRSEDTAVYYCVRSGREFDYWGQGTLVTVSSASTKGPSVFPLAPSSKSTSGGTAALGCLVKDYFPEPVTVSWNSGALTSGVHTFPAVLQSSGLYSLSSVVTVPSSSLGTQTYICNVNHKPSNTKVDKKVEPKSCDKTHTCPPCPAPELLGGPSVFLFPPKPKDTLMISRTPEVTCVVVDVSHEDPEVKFNWYVDGVEVHNAKTKPREEQYNSTYRVVSVLTVLHQDWLNGKEYKCKVSNDALPMPIEETISKAKGQPREPQVYTLPPSRCELTKNQVSLSCAVKGFYPSDIAVEWESNGQPENNYKTTPPVLDSDGSFFLVSKLTVDKSRWQQGNVFSCSVMHEALHNHYTQKSLSLSP
light: DIQMTQSPSSLSASVGDRVTITCRASQDIHKYIAWYQQKPGQAPRLLIQYTSTLQPGVPSRFSGSGSGTDYTFTISSLQPEDIATYYCLQYEQLRTFGGGTKVEIKRTVAAPSVFIFPPSDEQLKSGTASVVCLLNNFYPREAKVQWKVDNALQSGNSQESVTEQDSKDSTYSLSSTLTLSKADYEKHKVYACEVTHQGLSSPVTKSFNRGEC
notes: Heterodimerized anti-epiregulin IgG1, knobs-into-holes
Kd [1]: 0.14 nM | Kd [2]: 350 nM | Kd [3]: 280 nM | Kd [4]: 1200 nM | Kd [5]: 5.1 nM | Kd [6]: 1.8 nM | Kd [7]: 5.1 nM | Kd [8]: 1.8 nM
